{"source": "the supplement of paper PMC12042874", "note": "± gives the uncertainty stated by the source."}
{"test": "amyloid nucleation score (Sup35N fusion, yeast selection) (log enrichment); library NNK2; higher = more nucleation; inactive = no reads after selection", "in_short": "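After 24 hours of induction with 100 μM copper sulfate, psi-negative yeast expressing peptides of 20 random codons fused to Sup35N were grown for 7 days at 30°C on medium lacking adenine and uracil. Input and output plasmid inserts were sequenced with Illumina, and sequences with under 100 input reads were discarded. Scores for nucleation are the DiMSum log enrichment of output over input reads, centred on the mode score of non-aggregating sequences.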"}
{"substance": "IVVFSGVQVRGHCWNVKGAN", "amyloid nucleation score": "7.64 ± 0.069"}
{"substance": "TLAYMNGVA", "amyloid nucleation score": "-0.928 ± 0.63"}
{"substance": "SENIRDFVLKWCYLDTHDRL", "amyloid nucleation score": "-0.261 ± 1.1"}
{"substance": "YFILKFVQTGGNS", "amyloid nucleation score": "4.12 ± 0.041"}
{"substance": "GLNVFCEKYISFKVMGIVER", "amyloid nucleation score": "5.24 ± 0.069"}
{"substance": "SSWVFITFSYVMRSQVYHLK", "amyloid nucleation score": "-1.12 ± 0.49"}
{"substance": "VFRGAVSWTVLIGDNKVVLY", "amyloid nucleation score": "0.674 ± 0.45"}
{"substance": "RGLRA", "amyloid nucleation score": "-0.213 ± 0.41"}
{"substance": "WELVSGVYVTGCTFSSEDVQ", "amyloid nucleation score": "-0.785 ± 0.29"}
{"substance": "VMNMRLLRANLPWTLAWRVQ", "amyloid nucleation score": "0.122 ± 0.35"}
{"substance": "FRMFNVGFPDRPIMFRVDRL", "amyloid nucleation score": "0.41 ± 0.74"}
{"substance": "SYIGFVSIGSNMNRCSFDKF", "amyloid nucleation score": "-0.116 ± 0.29"}
{"substance": "SSVHPPEPRINFFSSDGCIA", "amyloid nucleation score": "inactive"}
{"substance": "RRSFTTADTCLLIS", "amyloid nucleation score": "-0.695 ± 0.54"}
{"substance": "VVSWKCIEYYVVE", "amyloid nucleation score": "-0.871 ± 0.78"}
{"substance": "QCYIVCFICSRYTNQVKLLY", "amyloid nucleation score": "1.38 ± 0.14"}
{"substance": "VDWVMNCYTSGVVSLSFSLG", "amyloid nucleation score": "inactive"}
{"substance": "RCLNQTTYRNNSPCAVLWCM", "amyloid nucleation score": "7.028 ± 0.058"}
{"substance": "AYGVSPI", "amyloid nucleation score": "-0.093 ± 0.35"}
{"substance": "VVGSWYKSGRKRLQRDDALS", "amyloid nucleation score": "-1.03 ± 0.55"}
{"substance": "TDLNHACCSNPLSF", "amyloid nucleation score": "-0.468 ± 0.61"}
{"substance": "GVIWVCIRCDHGGTAMRLLW", "amyloid nucleation score": "1.25 ± 0.45"}
{"substance": "AVFSRYCLIYVIMLDHDTDP", "amyloid nucleation score": "5.03 ± 0.099"}
{"substance": "YNSVVADKWCSFSK", "amyloid nucleation score": "0.155 ± 1.1"}
{"substance": "YYYVTCSILPLFYFEKGLAL", "amyloid nucleation score": "5.711 ± 0.037"}
{"substance": "IFVYY", "amyloid nucleation score": "-0.162 ± 0.4"}
{"substance": "IQARSYFVPTFSFLCTHSPT", "amyloid nucleation score": "0.839 ± 0.48"}
{"substance": "LRDCLIRNPLKLRTKLTGHV", "amyloid nucleation score": "0.608 ± 0.3"}
{"substance": "WQIGPCYNVLRFLKWFWSLR", "amyloid nucleation score": "-0.637 ± 1.1"}
{"substance": "GRTYGFSSRVVMRRGSCDFG", "amyloid nucleation score": "0.913 ± 0.52"}
{"substance": "MDYTFSLQTMCGVWYCYWGR", "amyloid nucleation score": "1.31 ± 0.31"}
{"substance": "INYSFWRSHSSP", "amyloid nucleation score": "4.42 ± 0.099"}
{"substance": "ASQRTVA", "amyloid nucleation score": "1.6 ± 0.36"}
{"substance": "TDLVDPGGTKHRKDS", "amyloid nucleation score": "0.523 ± 0.53"}
{"substance": "LVGYLSSVELDYRWENC", "amyloid nucleation score": "-0.026 ± 0.32"}
{"substance": "AWRKRH", "amyloid nucleation score": "0.746 ± 0.18"}
{"substance": "QVKMSSYFVLFFAGPPHVSI", "amyloid nucleation score": "-1.13 ± 0.76"}
{"substance": "RCHRNFVSWVEDLGRRSIGV", "amyloid nucleation score": "4.53 ± 0.051"}
{"substance": "FFIWLPYRSTTINRISPCWG", "amyloid nucleation score": "-1.94 ± 0.54"}
{"substance": "CLLNVTEAFTGGSMIGWHFR", "amyloid nucleation score": "5.393 ± 0.049"}
{"substance": "GDFDKDV", "amyloid nucleation score": "-0.188 ± 0.5"}
{"substance": "GDLRYQSPSLCFCFMSFGDQ", "amyloid nucleation score": "5.971 ± 0.024"}
{"substance": "LWAPAYCLIKC", "amyloid nucleation score": "0.851 ± 0.57"}
{"substance": "CNNQEMPTSGWMSCFSCALC", "amyloid nucleation score": "1.48 ± 0.32"}
{"substance": "WIREY", "amyloid nucleation score": "-0.43 ± 0.32"}
{"substance": "VGGLDKNHMVLDCLDKGCGM", "amyloid nucleation score": "0.216 ± 0.62"}
{"substance": "VILRVIGIIMRDNKFSHDVR", "amyloid nucleation score": "inactive"}
{"substance": "NDHLGVS", "amyloid nucleation score": "3.69 ± 0.059"}
{"substance": "VRVGCTWS", "amyloid nucleation score": "0.618 ± 0.34"}
{"substance": "DCARERYKLYNRLHWPSLSS", "amyloid nucleation score": "0.474 ± 0.26"}
{"substance": "TNCINM", "amyloid nucleation score": "5.49 ± 0.055"}
{"substance": "VHVWWANVIRVMYNHVRSDW", "amyloid nucleation score": "0.133 ± 0.34"}
{"substance": "SEWDLRVLTWYMWLFVPLVQ", "amyloid nucleation score": "-0.477 ± 0.39"}
{"substance": "TNATSGGHMLMIYEDFNVYL", "amyloid nucleation score": "2.49 ± 0.069"}
{"substance": "LSRSGNAPDMKKLLNFGQTR", "amyloid nucleation score": "3.71 ± 0.042"}
{"substance": "CESPLSYWWRSRSLFSLCVE", "amyloid nucleation score": "-0.359 ± 0.55"}
{"substance": "DDHLCSFLRFFTNKRKRA", "amyloid nucleation score": "4.67 ± 0.09"}
{"substance": "RLIKTHVVKLFQSRWWVIGD", "amyloid nucleation score": "0.631 ± 0.51"}
{"substance": "IGNDFNANM", "amyloid nucleation score": "-0.754 ± 0.76"}
{"substance": "IGFYFLNRRKIFLASTGILM", "amyloid nucleation score": "inactive"}
{"substance": "CKKEVL", "amyloid nucleation score": "inactive"}
{"substance": "NWIPYVWGWIALIVGSDF", "amyloid nucleation score": "-0.158 ± 0.55"}
{"substance": "YGALYTVRMEN", "amyloid nucleation score": "-0.482 ± 0.49"}
{"substance": "KVALINYSLPMYFSVVTGLY", "amyloid nucleation score": "2.97 ± 0.071"}
{"substance": "LSLTNIYGKSIRDERIKTSC", "amyloid nucleation score": "-0.129 ± 0.65"}
{"substance": "FVGTAQEEIHGFMNCIVELR", "amyloid nucleation score": "inactive"}
{"substance": "SGHGLWLDAWCRLLDNRGYL", "amyloid nucleation score": "-0.403 ± 0.44"}
{"substance": "PCVLKLRSSSKSISCSWGVS", "amyloid nucleation score": "3.85 ± 0.074"}
{"substance": "YHRYAAS", "amyloid nucleation score": "-0.077 ± 0.39"}
{"substance": "VKRVFGYCFIEGLSKDVFHG", "amyloid nucleation score": "6.351 ± 0.043"}
{"substance": "ASSRFDDVINDRIRILVCAV", "amyloid nucleation score": "-0.102 ± 0.49"}
{"substance": "AVNSNDTRDGRCGVIAI", "amyloid nucleation score": "0.057 ± 0.31"}
{"substance": "SWGYNRF", "amyloid nucleation score": "inactive"}
{"substance": "FCVISKGRHVSMRTTSGFLE", "amyloid nucleation score": "-0.834 ± 0.54"}
{"substance": "LCWPIFNFVFVSNPMLKLRL", "amyloid nucleation score": "inactive"}
{"substance": "NCPSTDFPELMSMQSYCLLC", "amyloid nucleation score": "-1.71 ± 1.1"}
{"substance": "SVYQVRLLFGDLRANKAVVS", "amyloid nucleation score": "-0.494 ± 0.56"}
{"substance": "IQYPLFSCTYEGFFGDRYMA", "amyloid nucleation score": "-0.495 ± 0.55"}
{"substance": "WIVSF", "amyloid nucleation score": "0.131 ± 0.29"}
{"substance": "NSSTTHAGLVYYYSGKGPRV", "amyloid nucleation score": "inactive"}
{"substance": "HPTSYVPSYLSFASKWLRVA", "amyloid nucleation score": "0.571 ± 0.3"}
{"substance": "MELTSN", "amyloid nucleation score": "inactive"}
{"substance": "CVVEQALLLWN", "amyloid nucleation score": "-0.243 ± 0.79"}
{"substance": "DLFNRNIVVCSLFLGYMVTI", "amyloid nucleation score": "2.99 ± 0.092"}
{"substance": "LKRYKVRQFSTCLWAGAYSQ", "amyloid nucleation score": "0.407 ± 0.23"}
{"substance": "FAVTGFTWYMKIRCASIPLV", "amyloid nucleation score": "1.65 ± 0.21"}
